# Source: patent US20250340649A1 (RUTGERS THE STATE UNIVERSITY OF NEW JERSEY, published 2025)
# T1: biotinylated CD32b (UniProt P31994 46-217, biotinylated)
# T1 construct: also called CD32b antigen
# T1 sequence (looked up): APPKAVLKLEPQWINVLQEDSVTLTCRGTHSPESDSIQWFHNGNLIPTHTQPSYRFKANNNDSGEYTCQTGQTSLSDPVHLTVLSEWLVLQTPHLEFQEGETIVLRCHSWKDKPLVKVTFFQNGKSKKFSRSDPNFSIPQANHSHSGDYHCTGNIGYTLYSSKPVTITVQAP
# T2: CD32b on B cells (UniProt P31994 43-310)
# T2 construct: whole, on cells; also called B cells (CD32b+)
# T2 sequence (looked up): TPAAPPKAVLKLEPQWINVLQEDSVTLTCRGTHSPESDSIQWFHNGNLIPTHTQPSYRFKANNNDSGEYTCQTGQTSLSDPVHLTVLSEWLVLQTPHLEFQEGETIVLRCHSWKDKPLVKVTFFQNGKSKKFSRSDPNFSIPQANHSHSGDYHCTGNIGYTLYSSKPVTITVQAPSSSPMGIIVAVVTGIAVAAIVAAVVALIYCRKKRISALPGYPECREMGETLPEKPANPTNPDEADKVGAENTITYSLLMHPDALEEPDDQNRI
# Key:
# CD16b on neutrophils [1] = target: T3, CD16b on neutrophils (human, UniProt O75015 17-200); test: flow cytometry, neutrophils (CD16b+)
# T3 construct: whole, on cells; also called neutrophils (CD16b+)
# [2] = target: T4, CD16a on NK92 (CD16+) cells (human, UniProt P08637 17-254); test: flow cytometry, NK92 cells (CD16a+)
# T4 construct: whole, on cells; also called NK92 cells (CD16a+); haNK92 cells (CD16a+)
# CD16b on neutrophils [3] = target: T3, CD16b on neutrophils; test: flow cytometry, neutrophils (CD16b+); value of the drawn table
# CD16b on neutrophils [4] = target: T3, CD16b on neutrophils; test: flow cytometry, neutrophils (CD16b+); value at the PE-H+ gate inside the histogram
# [5] = target: T5, Biotinylated Human Fc gamma RIIIA/CD16a (F176) Protein, Avitag, His Tag (Acrobiosystems CDA-H82E8) (human, UniProt P08637 17-208, biotinylated (Avitag)); test: BLI (Octet), biotinylated CD16a on streptavidin sensor, VHH 1.875-60 nM
# T5 construct: also called biotinylated CD16a; CD16a antigen
# biotinylated CD32b = target: T1, biotinylated CD32b; test: ELISA, biotinylated antigen on streptavidin plate
# Experimental: The purified VHHs were subjected to functional analysis using ELISA and flow cytometry. For ELISA, 50 μL of biotinylated CD16a, CD16b-NA1, CD16b-NA2, and CD32b were added to the streptavidin-coated plate and incubated for 45 min at RT. Following washing, the 100 μL of 100 nM purified VHHs were added and incubated at RT for 1 h. Next, 100 μL anti-HA tag HRP conjugated secondary antibody was added. Finally, the substrate was added for color development, and the plate was read using OD of 450 nm.
# CD32b and skim milk were also used as antigen controls. 3G8 and eBioCB16, which are anti-CD16a/b mAbs were used as antibody controls. […] CD32b is a receptor that is expressed on B cells and responsible for inhibiting B cell activation. One of the disadvantages of mAb-based therapies is the binding of their Fc region to CD32b leading to the diminished activity of humoral immunity.
# [6] = target: T6, Biotinylated Human Fc gamma RIIIB/CD16b (NA1) Protein, His, Avitag (Acrobiosystems CDB-H82E4) (human, UniProt O75015 17-200, biotinylated (Avitag)); test: BLI (Octet), biotinylated CD16b-NA1 on streptavidin sensor, VHH 1.875-60 nM
# T6 construct: NA1 allele; also called CD16b-NAI
# Experimental: An Octet® Streptavidin (SA) Biosensor was soaked for at least 10 min in DPBS supplemented with 0.1% Casein, biotinylated CD16a, CD16b-NA1, CD16b-NA2, and HER2 antigens were loaded onto the streptavidin (SA) biosensor until 1 nm shift was reached. Next, the sensor was dipped into the washing buffer (DPBS+0.05% Tween 20+0.1% Casein) for 2 min to reach the baseline. […] Then, in the dissociation step, sensors were dipped into the washing buffer for 5 min to acquire data (Table 5). The data were then analyzed using Octet Data Analysis HT 11.1 software. The sensorgrams were subtracted from the reference and fitted into 1:1 binding model for data analysis. Finally, the affinity and kinetics were analyzed using “Association and Dissociation”.
# [7] = target: T4, CD16a on NK92 (CD16+) cells; test: flow cytometry, fixed haNK92 (CD16+) cells, tenfold dilutions, anti-histag-FITC
# Experimental: First, CD16a+NK92 was harvested and washed once using Dulbecco's phosphate-buffered saline (DPBS) supplemented with 2% FBS (2% DPBS-FBS). Next, all the cells were fixed using 3.7% paraformaldehyde for 20 min at RT, followed by washing twice. […] Following washing three times, the secondary antibody, anti-Histag antibody FITC labeled, was added. After washing, the samples were run on Cytoflex using FL1 channel.
# CD16b on neutrophils [8] = target: T3, CD16b on neutrophils; test: flow cytometry on neutrophils (CD16b+)
# Experimental: For flow cytometry, haNK92 cells (CD16a+) and Neutrophils (CD16b⁺) were used. […] The human Neutrophil cells were purchased from HemaCare and cultured according to the manufacturer's protocol. First, both cell lines were harvested and washed once using DPBS supplemented with 2% FBS (2% DPBS-FBS). For each sample, 0.5×10⁶ cells were stained with antibody on ice for 60 min. In this experiment, 3G8 monoclonal antibody was used as a positive control. This antibody binds to both CD16a and CD16b. Following washing three times, the secondary antibody, anti-Histag antibody FITC labeled, was added. After washing, the samples were run on Cytoflex using FL2 channel.
# In this experiment, NK92 cells (CD16a⁺), neutrophils (CD16b⁺), and B cells (CD32b⁺) were used as cell controls. 3G8 (anti-CD16a/b) and AT10 (anti-CD32a/b) mAbs were used as antibody controls.
# [9] = target: T5, Biotinylated Human Fc gamma RIIIA/CD16a …; test: ELISA, biotinylated CD16a on streptavidin plate, tenfold dilutions 0-1000 nM, anti-cMyc-HRP
# Experimental: For ELISA, 50 μL of biotinylated CD16a was added to the streptavidin-coated plate and incubated for 45 min at RT. […] Next, 100 μl anti-cMyc tag HRP conjugated secondary antibody (1:10,000 dilutions) was added. Finally, after washing, the substrate was added for color development, and the plate was read using OD of 450 nm.
# CD32b on B cells = target: T2, CD32b on B cells; test: flow cytometry on B cells (CD32b+)
# T5 sequence (P08637 17-208 limits assumed): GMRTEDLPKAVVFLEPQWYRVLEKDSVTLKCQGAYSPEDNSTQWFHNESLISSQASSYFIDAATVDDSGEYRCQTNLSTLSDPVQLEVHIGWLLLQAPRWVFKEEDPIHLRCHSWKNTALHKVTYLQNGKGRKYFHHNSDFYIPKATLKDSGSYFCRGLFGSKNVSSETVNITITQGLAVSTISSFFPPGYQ
# T4 sequence (P08637 17-254 F176V): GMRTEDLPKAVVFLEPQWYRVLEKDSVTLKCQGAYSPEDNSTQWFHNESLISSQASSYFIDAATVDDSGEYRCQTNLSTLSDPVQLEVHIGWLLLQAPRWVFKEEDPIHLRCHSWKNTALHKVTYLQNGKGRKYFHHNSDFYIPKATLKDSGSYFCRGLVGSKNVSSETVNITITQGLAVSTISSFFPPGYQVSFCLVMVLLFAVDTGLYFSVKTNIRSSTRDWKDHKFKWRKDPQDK
# T3 sequence (O75015 17-200): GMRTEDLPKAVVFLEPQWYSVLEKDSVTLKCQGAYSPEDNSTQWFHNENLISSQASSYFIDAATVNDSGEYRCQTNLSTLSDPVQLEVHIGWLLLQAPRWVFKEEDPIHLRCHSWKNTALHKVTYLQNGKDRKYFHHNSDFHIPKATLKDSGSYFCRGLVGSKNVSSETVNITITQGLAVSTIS
# T6 sequence (O75015 other isoform, or with tags, fused parts or gaps limits assumed): as the sequence (O75015 17-200) above, with S20R, N66D, I90V counted along it
MFI (CD16b on neutrophils [1]),PE- (CD16b on neutrophils [1]) [%],FITC+ [2] [%],FITC- [2] [%],MFI [2],PE+ (CD16b on neutrophils [3]) [%],PE+ (CD16b on neutrophils [4]) [%],Kd [5] [nM],koff [5] [s⁻¹],kon [5] [M⁻¹ s⁻¹],binding result (biotinylated CD32b),Kd [6] [nM],koff [6] [s⁻¹],kon [6] [M⁻¹ s⁻¹],EC50 (read off the curve) [7] [nM],binding result (CD16b on neutrophils [8]),EC50 (read off the curve) [9] [nM],binding result (CD32b on B cells),Molecule
18000,38.1,82.2,17.8,88200,61.1,61.9,,,,,,,,,,,,"CD16 Monoclonal Antibody (3G8), Functional Grade, eBioscience"
,,,,,,,1.73,0.000479,277000,no binding (tested: 100 nM),119,0.0255,213000,~1,no binding,~0.3,no binding,"C1 anti-CD16a VHH (VHH, also called C1 clone; C1 VHH) VHH: QVQLQESGGGLVQAGGSLRLSCAASGRTFRLYRMGWFRQAPGKEREFVGSIKMIDGSTLYGDPVKGRFTISRDNTKFMAYLQMNSLKPEDTAVYYCASVSRVTGSYDSWGQGTQVTVSSYPYDVPDYAHHHHHHHH"
